# Residue numbers refer to the chain shown, from its start.
# T1: BCMA on BCMA-positive NCI-H929, ARP-1 and U266B1 cells (human, UniProt Q02223 1-184)
# T1 sequence: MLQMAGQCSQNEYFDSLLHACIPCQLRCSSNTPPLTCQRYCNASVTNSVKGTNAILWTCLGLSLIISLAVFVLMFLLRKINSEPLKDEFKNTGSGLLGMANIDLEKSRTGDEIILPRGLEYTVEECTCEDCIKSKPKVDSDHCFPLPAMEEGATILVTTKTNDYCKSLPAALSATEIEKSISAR
# B1: 9A8 (antibody, V domains shown)
# VH: AVTLDESGGGLQTPGGTLSLVCKASGFTFSSFNMFWVRQAPGKGLEWVAYIRNDGNSASYGPAVKGRATISRDNGQSTVRLQLNNLRAEDTATYYCAKTTCIGSGGCIDTWGHGTEVIVSS
# VL: ALTQPSSVSANPGETVKITCSGGSSDYGWFQQKSPGSAPVTVIYSNNQRPSGIPSRFSGSKSGSTGTLTITGVQAEDEAIYYCANVDYTDDVFGAGTTLTVL
# notes: chicken HybriFree-derived antibody; also called Antibody 30
# B2: 10G5 (antibody, V domains shown)
# VH: B1 VH with T17V, R52S, N56S, A58T, Y95F
# VL: B1 VL with S24N, S25Y, F30Y, V42L, S45Y, Q48K, G52D, Y88S
# notes: chicken HybriFree-derived antibody; also called Antibody 31
# B3: 11D6 (antibody, V domains shown)
# VH: B1 VH with K43E, N56R, A58T, A92G, Y95F, I102V
# VL: B1 VL with K17E, S24N, S45R, G52D, K61G, G66N, A84G, Y88F
# notes: chicken HybriFree-derived antibody; also called Antibody 32
# B4: SRP2265-F02 (antibody, IgG1, V domains shown)
# VH: EVQLVESGGGLVQPGGSLRLSCAASGFNISAPGIHWVRQAPGKGLEWVGFINPAGGYTDYADSVKGRFTISADTSKNTAYLQMNSLRAEDTAVYYCARDYIRQYWTYVLDYWGQGTLVTVSS
# VL: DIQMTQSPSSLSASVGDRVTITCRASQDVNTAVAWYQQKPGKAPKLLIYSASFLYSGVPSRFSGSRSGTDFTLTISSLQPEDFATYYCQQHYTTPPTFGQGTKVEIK
# notes: IgG1 with trastuzumab light chain, His/FLAG-tagged, cell-free expressed; also called Antibody 4
# B5: SRP2265-F03 (antibody, IgG1, V domains shown)
# VH: B4 VH with S30R, A31G, N52S, G55A, Y100F, I101V, R102Q, Q103S
# VL: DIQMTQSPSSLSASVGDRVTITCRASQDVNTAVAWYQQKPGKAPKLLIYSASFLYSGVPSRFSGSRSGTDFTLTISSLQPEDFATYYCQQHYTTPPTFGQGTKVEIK
# notes: IgG1 with trastuzumab light chain, His/FLAG-tagged, cell-free expressed; also called Antibody 7
# B6: SRP2265-E02 (antibody, IgG1, V domains shown)
# VH: B4 VH with S30Y, A31V, P32S, M83T, I101V, R102Y
# VL: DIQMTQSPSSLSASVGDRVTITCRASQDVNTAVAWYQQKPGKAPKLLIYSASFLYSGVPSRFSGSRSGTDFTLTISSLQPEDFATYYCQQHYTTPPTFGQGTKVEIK
# notes: IgG1 with trastuzumab light chain, His/FLAG-tagged, cell-free expressed; also called Antibody 8
# B7: SRP2265-F06 (antibody, IgG1, V domains shown)
# VH: B4 VH with A31Y, R102L
# VL: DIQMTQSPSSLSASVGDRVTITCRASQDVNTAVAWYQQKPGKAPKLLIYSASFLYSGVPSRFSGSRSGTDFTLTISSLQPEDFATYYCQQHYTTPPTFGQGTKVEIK
# notes: IgG1 with trastuzumab light chain, His/FLAG-tagged, cell-free expressed; also called Antibody 2
# B8: SRP2265-F05 (antibody, IgG1, V domains shown)
# VH: B4 VH with S30I, I101V, R102N, Q103A
# VL: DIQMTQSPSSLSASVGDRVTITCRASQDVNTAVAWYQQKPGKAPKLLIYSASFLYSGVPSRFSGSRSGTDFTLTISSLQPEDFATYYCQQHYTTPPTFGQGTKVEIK
# notes: IgG1 with trastuzumab light chain, His/FLAG-tagged, cell-free expressed; also called Antibody 3
# B9: SRP2265-D05 (antibody, IgG1, V domains shown)
# VH: B4 VH with A31G, G55A, T69A, Y100F, I101V, R102Y, Q103A
# VL: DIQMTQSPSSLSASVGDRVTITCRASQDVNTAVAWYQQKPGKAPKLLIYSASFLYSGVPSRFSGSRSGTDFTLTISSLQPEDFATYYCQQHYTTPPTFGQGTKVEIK
# notes: IgG1 with trastuzumab light chain, His/FLAG-tagged, cell-free expressed; also called Antibody 10
# B10: SRP2265-A09 (antibody, IgG1, V domains shown)
# VH: B4 VH with S30I, A31G, I101V, R102Y, Q103N
# VL: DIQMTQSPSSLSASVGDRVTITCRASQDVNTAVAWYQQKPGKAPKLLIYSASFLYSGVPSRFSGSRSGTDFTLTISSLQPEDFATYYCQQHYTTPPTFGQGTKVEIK
# notes: IgG1 with trastuzumab light chain, His/FLAG-tagged, cell-free expressed; also called Antibody 6
# B11: SRP2265-A06 (antibody, IgG1, V domains shown)
# VH: B4 VH with S30Y, A31R, P32S, I101V, R102P
# VL: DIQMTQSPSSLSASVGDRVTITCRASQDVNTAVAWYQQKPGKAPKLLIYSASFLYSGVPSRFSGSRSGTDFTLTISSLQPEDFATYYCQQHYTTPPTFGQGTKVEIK
# notes: IgG1 with trastuzumab light chain, His/FLAG-tagged, cell-free expressed; also called Antibody 13
# B12: SRP2265-C03 (antibody, IgG1, V domains shown)
# VH: B4 VH with S25P, A31V, I101V, R102P
# VL: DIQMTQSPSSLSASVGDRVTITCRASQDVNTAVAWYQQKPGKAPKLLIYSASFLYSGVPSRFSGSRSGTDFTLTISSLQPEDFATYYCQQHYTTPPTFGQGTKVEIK
# notes: IgG1 with trastuzumab light chain, His/FLAG-tagged, cell-free expressed; also called Antibody 11
# B13: SRP2265-B06 (antibody, IgG1, V domains shown)
# VH: B4 VH with S30R, A31V, P32S, I101V, R102Q, Q103A
# VL: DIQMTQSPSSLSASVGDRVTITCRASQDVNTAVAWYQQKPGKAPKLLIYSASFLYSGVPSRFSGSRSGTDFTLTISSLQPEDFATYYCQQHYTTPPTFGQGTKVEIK
# notes: IgG1 with trastuzumab light chain, His/FLAG-tagged, cell-free expressed; also called Antibody 5
# B14: SRP2265-D11 (antibody, IgG1, V domains shown)
# VH: B4 VH with A31G, G55A, R102Y
# VL: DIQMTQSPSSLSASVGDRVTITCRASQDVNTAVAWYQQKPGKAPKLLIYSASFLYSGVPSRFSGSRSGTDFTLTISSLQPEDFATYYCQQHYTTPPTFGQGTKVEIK
# notes: IgG1 with trastuzumab light chain, His/FLAG-tagged, cell-free expressed; also called Antibody 9
# B15: SRP2265-C02 (antibody, IgG1, V domains shown)
# VH: B4 VH with S30G, A31V, P32S, D62G, R102Y, Q103S
# VL: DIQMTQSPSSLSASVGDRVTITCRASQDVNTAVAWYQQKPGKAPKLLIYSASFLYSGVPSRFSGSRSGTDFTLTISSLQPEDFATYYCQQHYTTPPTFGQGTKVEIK
# notes: IgG1 with trastuzumab light chain, His/FLAG-tagged, cell-free expressed; also called Antibody 12
# B16: SRP2137-A05 (antibody, IgG1, V domains shown)
# VH: EVQLVESGGGLVQPGGSLRLSCAASGFNINNSYIHWVRQAPGKGLEWVGWIYPYSGYTNYADSVKGRFTISADTSKNTAYLQMNSLRAEDTAVYYCARDYGPWYGTGVLDYWGQGTLVTVSS
# VL: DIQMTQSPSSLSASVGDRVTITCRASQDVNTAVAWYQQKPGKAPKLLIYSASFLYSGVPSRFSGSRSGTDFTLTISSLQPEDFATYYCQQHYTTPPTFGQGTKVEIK
# notes: IgG1 with trastuzumab light chain, His/FLAG-tagged, cell-free expressed; also called Antibody 14
# B17: SRP2213-A06 (antibody, IgG1, V domains shown)
# VH: EVQLVESGGGLVQPGGSLRLSCAASGFNISSYAIHWVRQAPGKGLEWVGVISPYGGYTEYADSVKGRFTISADTSKNTAYLQMNSLRAEDTAVYYCARDFYDRYSTYVLDYWGQGTLVTVSS
# VL: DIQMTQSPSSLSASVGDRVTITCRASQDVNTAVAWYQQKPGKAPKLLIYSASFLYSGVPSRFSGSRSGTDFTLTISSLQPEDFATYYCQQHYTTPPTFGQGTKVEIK
# notes: IgG1 with trastuzumab light chain, His/FLAG-tagged, cell-free expressed; also called Antibody 23
# Target: T1, BCMA on BCMA-positive NCI-H929, ARP-1 …
# Assay: cell-based or functional assay
Binder,"ARP-1, SC239-conjugated 2° antibody cell killing, EC50","ARP-1, SC239-conjugated 2° antibody cell killing, Span","U266B1, SC239-conjugated 2° antibody cell killing, EC50","U266B1, SC239-conjugated 2° antibody cell killing, Span"
B1,2.4 nM,82%,2.3 nM,42%
B2,3.5 nM,82%,1.9 nM,63%
B3,3.8 nM,83%,1.1 nM,67%

# Target: T1, BCMA on BCMA-positive NCI-H929, ARP-1 …
# Assay: cell-based or functional assay
# Remark: another data set of the same source
Binder,"ARP-1, SC225-conjugated 2° antibody cell killing, EC50","ARP-1, SC225-conjugated 2° antibody cell killing, Span","U266B1, SC225-conjugated 2° antibody cell killing, EC50","U266B1, SC225-conjugated 2° antibody cell killing, Span"
B4,1.6 nM,62%,1 nM,62%
B5,2.3 nM,57%,0.8 nM,56%
B6,1.5 nM,55%,0.8 nM,53%
B7,1.2 nM,62%,0.9 nM,59%
B8,1.8 nM,52%,1.2 nM,61%
B9,1 nM,50%,0.8 nM,53%
B10,1.9 nM,55%,0.9 nM,58%
B11,2.9 nM,68%,1.3 nM,59%
B12,2.2 nM,70%,1.1 nM,61%
B13,1.6 nM,67%,0.6 nM,59%
B14,1.9 nM,51%,1 nM,54%
B15,1.5 nM,55%,0.7 nM,51%

# Target: T1, BCMA on BCMA-positive NCI-H929, ARP-1 …
# Assay: FACS, NCI-H929 cells
# Method: (§1) Variants for which sufficient protein was purified in secondary screening were tested in a fluorescence-activated cell sorting (FACS) cell-binding assay. […] 6-12 point dilutions of anti-BCMA variants starting from concentrations of about 100-200 nM antibody were dispensed into each well using a BioMekFX (Beckman Coulter). Cells were then incubated on ice for 1 hr, washed with FACS buffer and incubated for 1 hr on ice with […] FACS buffer containing […] Alexa647-conjugated Goat Anti-Human IgG dispensed using BioMekFX (Beckman Coulter). Cells were then washed 2× with FACS buffer and fixed for 10 minutes in […] PBS with 2% PFA prior to fluorescence detection. Samples were acquired using a Beckton Dickinson LSRII FACS. Geometric Mean Fluorescence Intensity of BCMA antibody binding was analyzed using FlowJo® software (Trec Star, Inc.).
Binder,Bmax (MFI),Kd
B16,2690 MFI,–
B4,12200 MFI,4.5 nM
B5,12500 MFI,5.3 nM
B6,11600 MFI,–
B7,11400 MFI,–
B8,12700 MFI,10.3 nM
B9,10900 MFI,4 nM
B10,11700 MFI,5.2 nM
B11,11100 MFI,–
B17,2510 MFI,–
B12,11500 MFI,4.4 nM
B13,11900 MFI,6.2 nM
B14,9620 MFI,4.4 nM
B15,11200 MFI,4.3 nM
B1,21100 MFI,–
B2,25800 MFI,–
B3,26400 MFI,–

# Target: cynomolgus BCMA on 293T-cynoBCMA cells (cynomolgus, UniProt Q02223 1-184 (human entry))
# Sequence (Q02223 other isoform, or with tags, fused parts or gaps): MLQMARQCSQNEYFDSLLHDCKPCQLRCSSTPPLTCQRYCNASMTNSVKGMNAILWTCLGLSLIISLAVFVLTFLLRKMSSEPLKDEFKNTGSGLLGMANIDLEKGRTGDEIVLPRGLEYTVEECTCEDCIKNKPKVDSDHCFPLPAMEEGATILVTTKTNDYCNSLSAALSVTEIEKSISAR
# Assay: FACS, 293T-cynoBCMA cells
# Method: as §1
Binder,Bmax (MFI),Kd
B16,1910 MFI,–
B4,21800 MFI,5 nM
B6,26700 MFI,5.1 nM
B7,25800 MFI,–
B8,18500 MFI,3 nM
B9,21300 MFI,3.8 nM
B10,23800 MFI,6.2 nM
B11,22100 MFI,–
B17,3620 MFI,–
B12,24100 MFI,4.9 nM
B13,26600 MFI,3.4 nM
B14,21900 MFI,2.5 nM
B15,17400 MFI,2.5 nM
B1,17800 MFI,–
B2,24400 MFI,–
B3,27700 MFI,–
